Test results reported in US10184137B2, “Method of producing isoprene monomer” (AJINOMOTO CO., INC., priority 2014, dated 2019).
Values joined by “and” are separate entries in the source; they are usually repeats but may differ in a detail not shown here. Identical values can stand only once.

What was measured:
[1] = target: T1, Methanosaeta concilii mevalonate kinase (mcl), wild type, SEQ ID NO:6, N-terminal His-tag (Methanothrix soehngenii, UniProt F4BZB3); experiment: biochemical
T1 sequence (F4BZB3 1-317): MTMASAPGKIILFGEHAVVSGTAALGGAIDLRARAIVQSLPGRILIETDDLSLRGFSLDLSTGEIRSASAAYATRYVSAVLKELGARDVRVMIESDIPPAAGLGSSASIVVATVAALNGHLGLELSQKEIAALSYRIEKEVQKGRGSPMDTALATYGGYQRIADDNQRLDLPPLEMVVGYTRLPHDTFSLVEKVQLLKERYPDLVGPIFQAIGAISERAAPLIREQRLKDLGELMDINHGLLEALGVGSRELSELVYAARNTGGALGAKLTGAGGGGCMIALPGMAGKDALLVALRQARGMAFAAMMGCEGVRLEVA

[2] = target: T2, Nitrosopumilus maritimus mevalonate kinase (nmr), wild type, SEQ ID NO:9, N-terminal His-tag (Nitrosopumilus maritimus, UniProt A9A427); experiment: Examination of product inhibition on nmr-derived mevalonate kinase; format: biochemical; conditions: 1 mM mevalonate as substrate, 50 mM ATP
T2 sequence (A9A427 1-313): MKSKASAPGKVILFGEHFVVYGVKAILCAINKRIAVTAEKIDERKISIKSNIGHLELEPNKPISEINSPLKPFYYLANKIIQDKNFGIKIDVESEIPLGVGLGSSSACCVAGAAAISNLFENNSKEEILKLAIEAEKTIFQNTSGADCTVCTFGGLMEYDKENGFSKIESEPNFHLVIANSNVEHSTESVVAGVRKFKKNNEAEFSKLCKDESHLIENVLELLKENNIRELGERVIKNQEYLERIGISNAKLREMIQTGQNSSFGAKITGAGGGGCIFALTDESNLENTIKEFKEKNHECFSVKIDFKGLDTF

[3] = target: Corynebacterium variabile mevalonate kinase (cva), wild type, SEQ ID NO:3, N-terminal His-tag (Corynebacterium variabile, UniProt A0A0X2NLH5); experiment: Inhibition of cva-derived mevalonate kinase by DMAPP, GPP, FPP or DPM; format: biochemical; conditions: 5 mM DMAPP, control 0.08338
Sequence of Corynebacterium variabile mevalonate kinase (cva), wild type, SEQ ID NO:3, N-terminal His-tag (A0A0X2NLH5 entry or part of it): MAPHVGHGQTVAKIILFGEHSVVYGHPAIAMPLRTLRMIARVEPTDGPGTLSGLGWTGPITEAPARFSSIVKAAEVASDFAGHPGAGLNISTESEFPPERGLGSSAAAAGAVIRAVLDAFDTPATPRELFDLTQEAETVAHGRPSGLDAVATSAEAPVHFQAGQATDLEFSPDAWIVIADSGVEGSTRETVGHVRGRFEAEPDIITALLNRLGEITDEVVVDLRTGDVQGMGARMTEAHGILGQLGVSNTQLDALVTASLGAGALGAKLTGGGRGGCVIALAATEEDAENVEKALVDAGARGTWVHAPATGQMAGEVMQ
Protocol: (§1) Km value was calculated by Lineweaver-Burk plot.
(§2) Since GPP and FPP solutions contain methanol, methanol which was needed to keep the same methanol level at the addition to the reaction system was added to the reaction solution, which was designated as control.
(§3) Effect of 1 mM diphosphomevalonate (DPM) on each enzyme was also studied.

[4] = target: Methanocella paludicola mevalonate kinase (mpd), wild type, SEQ ID NO:1, N-terminal His-tag (Methanocella paludicola, UniProt D1YZ39); experiment: Inhibition of mpd-derived mevalonate kinase by DMAPP, GPP, FPP or DPM; format: biochemical; conditions: 5 mM DMAPP, control 0.15734
Protocol: as §1, §2, §3

[5] = target: T1, Methanosaeta concilii mevalonate kinase (mcl), wild type, SEQ ID NO:6, N-terminal His-tag; experiment: Inhibition of mcl-derived mevalonate kinase by DMAPP, GPP, FPP or DPM; format: biochemical
Protocol: as §1, §2, §3

[6] = target: T2, Nitrosopumilus maritimus mevalonate kinase (nmr), wild type, SEQ ID NO:9, N-terminal His-tag; experiment: Inhibition of nmr-derived mevalonate kinase by DMAPP, GPP, FPP or DPM; format: biochemical; conditions: 5 mM DMAPP, control 0.2438
Protocol: as §1, §2, §3

[7] = target: T3, Methanosarcina mazei mevalonate kinase (mma), wild type, SEQ ID NO:12, N-terminal His-tag (Methanosarcina mazei, UniProt Q8PW39); experiment: Inhibition of mma-derived mevalonate kinase by DMAPP, GPP, FPP or DPM; format: biochemical; conditions: 5 mM DMAPP, control 0.21
T3 sequence (Q8PW39 1-301): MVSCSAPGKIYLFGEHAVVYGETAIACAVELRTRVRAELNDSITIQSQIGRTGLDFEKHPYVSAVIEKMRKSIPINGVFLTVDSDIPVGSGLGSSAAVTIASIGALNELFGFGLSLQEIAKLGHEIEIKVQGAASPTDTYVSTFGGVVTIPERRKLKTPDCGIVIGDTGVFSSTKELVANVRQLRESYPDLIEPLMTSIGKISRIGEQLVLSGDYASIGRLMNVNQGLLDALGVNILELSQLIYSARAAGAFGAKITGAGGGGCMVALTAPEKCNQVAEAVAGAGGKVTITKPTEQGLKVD
Protocol: as §1, §2, §3

[8] = substrate: Nc1ncnc2c1ncn2[C@@H]1O[C@H](COP(=O)(O)OP(=O)(O)OP(=O)(O)O)[C@@H](O)[C@H]1O; experiment: purified protein, by the assay type; conditions: 5 mM potassium mevalonate, pH 7.6, 30° C., Lineweaver-Burk plot
Protocol: Each obtained plasmid was used for transformation of E. coli BL21(DE3). […] When OD600 reached approximately 0.5, 0.1 mM IPTG (for cva, mma, nmr, and sce) or 1 mM (for mcl and mpd) of IPTG was added, and then the mixture was kept at 20° C. overnight to induce the target protein. […] After centrifugation (28,000×g, 30 min), the supernatant was adsorbed onto His-Trap HP (GE Healthcare) to elute the target protein by linear concentration gradient of Imidazol (final concentration 0.5 M). Obtained protein was dialyzed by using an external solution composed of 20 mM Tris-HCl (pH 8.0) containing 1 mM DTT and 50 mM NaCl. Dialyzed protein was designated as purified enzyme. Protein quantity was measured with Bio-RAD protein assay kit and BSA standard condition.
Decrease in absorbance at 340 nm at 30° C. was measured to determine the enzyme activity. JASCO Corporation's spectrophotometer (V-650) was used in this study. […] Km value was calculated by Lineweaver-Burk plot.

[9] = tested on: mevalonate kinase; experiment: Inhibition of each mevalonate kinase by DMAPP, GPP, FPP or DPM; format: biochemical
Protocol: as §2
Respective effect of the added 5 mM DMAPP, 0.1 mM GPP, and 0.1 mM FPP on the activity of each enzyme was measured. […] Contrarily, mcl-derived enzyme was activated by 5 mM DMAPP and its activity increased by 20% from that of the control.
Activity when 10 μl of each enzyme was added to 1 ml of the reaction system was represented by dABS/min
as §3

[10] = tested on: mcl-derived mevalonate kinase; experiment: Effect of IPP and low-concentration DMAPP on mcl-derived mevalonate kinase activity
[11] = tested on: mevalonate kinase; experiment: Examination of product inhibition on each mevalonate kinase (absorbance at 386 nm, PMK addition); format: biochemical; conditions: 1 mM mevalonate as substrate; in words
Protocol: When decrease in absorbance stopped, purified PMK was added to measure further decrease in absorbance at 386 nm.
FIG. 18 presents the SDS-PAGE profile of the purified PMK. […] Then, absorbance decreased further and finally absorbance at 386 nm decreased to 0.3 in all reaction systems. Therefore, it is inferred that mevalonate is converted into diphosphomevalonate via phosphomevalonate by adding PMK to each MVK.

[12] = tested on: mevalonate kinase; experiment: Expression analysis and activity confirmation of His-tagged mevalonate kinases from pET-21a(+) and pET-28b(+); format: biochemical; conditions: His-spinTrap eluate after dialysis, 10 μl enzyme solution
Protocol: Each obtained plasmid was used for transformation of E. coli BL21(DE3). […] When OD600 reached approximately 0.5, IPTG was added to the solution to final concentration of 1 mM. It was then cultured overnight at 20° C. Harvested cells were suspended in the buffer solution consisting of 50 mM sodium phosphate, 0.3 M NaCl and 20 mM Imidazol. Then the cells were disrupted with an ultrasonic disruptor (TOMY: UD-201, output level=3.5). After centrifugation (20,000×g, 20 min), disrupted cells were adsorbed to His-spinTrap (GE Healthcare). After washing with the same buffer solution, protein was eluted with the buffer solution consisting of 50 mM sodium phosphate, 0.3 M NaCl and 0.5 M imidazole (pH7.5). Eluate was dialyzed overnight at 4° C. with the external solution composed of 20 mM Tris-HCl (pH7.5) and 50 mM NaCl. Then, enzyme activity of each eluate in the internal dialysis solution was measured.
Activity of the internal dialysate (about 0.2 ml each) was measured with the 10 μl of enzyme solution (Table 8). Enzyme expression level was compared on activity basis between pET-21a(+) and pET-28b(+). […] It is inferred that expression level is higher in pET-28b(+). Therefore, purified enzyme expressed in pET-28b(+) was used in the further examinations.
Values were presented by decrease in absorbance per unit time per 10 μl in the enzyme reaction measurement system (dABS/min/10 μl).
(§4) Decrease in absorbance at 340 nm at 30° C. was measured to determine the enzyme activity. JASCO Corporation's spectrophotometer (V-650) was used in this study. Millimolar extinction coefficient of NADH used in this study was 6.22 mM^−1 cm^−1. […] Km value was calculated by Lineweaver-Burk plot.

[13] = tested on: mevalonate kinase; experiment: Measurement of activity and Km value of purified mevalonate kinase (PK/LDH coupled, 340 nm); format: biochemical
Protocol: Each obtained plasmid was used for transformation of E. coli BL21(DE3). […] When OD600 reached approximately 0.5, 0.1 mM IPTG (for cva, mma, nmr, and sce) or 1 mM (for mcl and mpd) of IPTG was added, and then the mixture was kept at 20° C. overnight to induce the target protein. Harvested cells were suspended in buffer solution A (50 mM sodium phosphate, 0.3 M NaCl and 20 mM Imidazol), and then the cells were disrupted with an ultrasonic disruptor (TOMY: UD-201). […] After centrifugation (28,000×g, 30 min), the supernatant was adsorbed onto His-Trap HP (GE Healthcare) to elute the target protein by linear concentration gradient of Imidazol (final concentration 0.5 M). Obtained protein was dialyzed by using an external solution composed of 20 mM Tris-HCl (pH 8.0) containing 1 mM DTT and 50 mM NaCl. Dialyzed protein was designated as purified enzyme. Protein quantity was measured with Bio-RAD protein assay kit and BSA standard condition.
as §4
Measured activity of each enzyme (JABS/min) was presented on Table 9 for the calculation of apparent Km value (Km app.) of each enzyme. Table 10 presents Km app., Vmax, molecular weight of the enzyme protein, protein concentration in the enzyme solution and calculated kcat.
Activity was indicated by dABS/min when 10 μl of each enzyme was added to 1 ml of reaction solution.

C=C(C)CCOP(=O)(O)OP(=O)(O)O.N.N.N [IPP, Isopentenyl pyrophosphate tri-ammonium salt]
Enzyme activity with 33.6 μM IPP ([1]; mcl, 33.6 μM IPP, control (MeOH) 0.15939): 0.158 dABS/min
Enzyme activity with 168 μM IPP ([1]; mcl, 168 μM IPP, control (MeOH) 0.15939): 0.1606 dABS/min

C[C@@](O)(CCOP(=O)(O)O)CC(=O)O [phosphomevalonate, mevalonate-5-phosphate]
Product inhibition [2]: may cause product inhibition

CC(C)=CCOP(=O)(O)OP(=O)(O)O.N.N.N [DMAPP, Dimethylallyl diphosphate ammonium salt]
Enzyme activity with 5 mM DMAPP [3]: 0.0786 dABS/min
Enzyme activity with 5 mM DMAPP [4]: 0.1528 dABS/min
Enzyme activity with 33.6 μM DMAPP ([1]; mcl, 33.6 μM DMAPP, control (H2O) 0.15403): 0.1527 dABS/min
Enzyme activity with 168 μM DMAPP ([1]; mcl, 168 μM DMAPP, control (H2O) 0.15403): 0.1552 dABS/min
activation at 5000 µM ([1]; read-out: Increase of relative activity): 20%
Enzyme activity with 5 mM DMAPP ([5]; mcl, 5 mM DMAPP, control 0.1482): 0.1806 dABS/min
activation at 5000 µM ([5]; read-out: Increase of activity from that of the control): 20%
Enzyme activity with 5 mM DMAPP [6]: 0.231 dABS/min
Enzyme activity with 5 mM DMAPP [7]: 0.1904 dABS/min

B1: Methanosaeta concilii mevalonate kinase (mcl), wild type, SEQ ID NO:6, N-terminal His-tag (Methanothrix soehngenii GP6) (protein)
chain: T1 sequence (F4BZB3 1-317)
Km ([8]; other: mcl): 74 ± 1.4 µM

B2: mcl: mevalonate kinase derived from Methanosaeta concilii (SEQ ID NO:6), His-tagged purified enzyme (protein, listed as Methanosaeta concilii)
chain: T1 sequence (F4BZB3 1-317)
modifications: His-tag
enzyme activity, Control ([9]; Table 11 control without terpenyl diphosphate (methanol added)): 0.1482 dABS/min
enzyme activity, Control ([9]; Table 12 control without DPM): 0.1373 dABS/min
effect of 5 mM DMAPP on enzyme activity ([9]; in words): activated
enzyme activity, Control (MeOH) ([10]; 70% methanol control for IPP): 0.1594 dABS/min
enzyme activity, Control (H2O) ([10]; control for DMAPP): 0.154 dABS/min
course of decrease in absorbance at 386 nm until PMK addition [11]: almost linear decrease in absorbance
enzyme activity, pET21 system (C terminal Tag) [12]: 0.003 dABS/min/10 μl
enzyme activity, pET28 system (N terminal Tag) [12]: 0.023 dABS/min/10 μl
dABS/min at ATP 0.04 mM ([13]; ATP 0.04 mM, potassium mevalonate 5 mM, 10 μl enzyme in 1 ml, replicate values): 0.06058 dABS/min and 0.06029 dABS/min and 0.05985 dABS/min
dABS/min at ATP 0.2 mM ([13]; ATP 0.2 mM, potassium mevalonate 5 mM, 10 μl enzyme in 1 ml, replicate values): 0.1223 dABS/min and 0.1222 dABS/min (2×)
dABS/min at ATP 1 mM ([13]; ATP 1 mM, potassium mevalonate 5 mM, 10 μl enzyme in 1 ml, replicate values): 0.1584 dABS/min (2×) and 0.1585 dABS/min
affinity to mevalonate and ATP compared with the other enzymes ([13]; in words): higher affinity to mevalonate and ATP than the other enzymes
dABS/min at mev 0.002 mM ([13]; potassium mevalonate 0.002 mM, ATP 5 mM, 10 μl enzyme in 1 ml, replicate values): 0.02277 dABS/min and 0.02381 dABS/min and 0.02265 dABS/min
dABS/min at mev 0.01 mM ([13]; potassium mevalonate 0.01 mM, ATP 5 mM, 10 μl enzyme in 1 ml, replicate values): 0.08427 dABS/min and 0.0843 dABS/min and 0.08431 dABS/min
dABS/min at mev 0.04 mM ([13]; potassium mevalonate 0.04 mM, ATP 5 mM, 10 μl enzyme in 1 ml, replicate values): 0.1675 dABS/min and 0.1677 dABS/min and 0.1671 dABS/min
dABS/min at mev 0.2 mM ([13]; potassium mevalonate 0.2 mM, ATP 5 mM, 10 μl enzyme in 1 ml, replicate values): 0.2123 dABS/min (2×) and 0.2125 dABS/min

B3: Methanocella paludicola mevalonate kinase (mpd), wild type, SEQ ID NO:1, N-terminal His-tag (Methanocella paludicola SANAE) (protein)
chain: MTMCSAPGKVFLFGEHAVVYGKRAIACAIDLRTTVEVSRKSRGVHIHSAFKDEPDKNLYIKTAVKRMQKCADIRNVNIAVSSRIPVASGLGSSAAVTVATIGALNEEFSAGLSKKDIAYMAYQTELEVQGAASPTDTFVSTMGGTVVVPDMRTLPPITCGIVVGHTGISKSTSRMVSRVRTLKEKYPDVIDGIMDSIGDISARGEDLIKQNDYRSIGELMNVNQGLLDALGITIPELSLQIYAARQHGAYGAKITGAGGGGCMVAICDDKNCKEIATAIGRSYGDSFISKPTAEGIFIQ
Km ([8]; other: mpd): 119 ± 2.1 µM
